Reference: patent US20170307628A1

Biological target: recombinant human IL-17A (human) (UniProt Q16552)
Test: cell-based or functional assay

recombinant human IL-17A (human), sequence (Q16552 20-155 limits assumed): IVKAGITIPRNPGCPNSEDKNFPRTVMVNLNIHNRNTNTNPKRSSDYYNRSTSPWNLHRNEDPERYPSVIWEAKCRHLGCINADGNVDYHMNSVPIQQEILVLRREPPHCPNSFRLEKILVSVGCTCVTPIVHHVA

inhibition of IL-17A induced IL-6 production in NHDF cells, IC50: 1 nM
Substance: human IL-17A receptor-Fc chimera (from UniProt Q96F46 33-320) (Fc fusion)
